How the values were obtained:
[1] = target: cysteine-less variant of HxuA^DEL (Haemophilus influenzae) (UniProt P44602); experiment: ITC; haemopexin or its fragments (~100 μM) in the syringe, HxuA (~10 μM) in the cell; 20 mM Na-phosphate pH 7.0, 25 °C; single-site model; apparent Ka
[2] = target: T1, HxuA (cysteine-less variant, Cys855 and Cys861 replaced by serines; referred to as HxuA throughout) (Haemophilus influenzae, UniProt P44602 22-905, Cys855 replaced by serine | Cys861 replaced by serine); experiment: ITC; haemopexin or its fragment (~100 uM) in the syringe, HxuA or mutant (~10 uM) in the cell; 25 °C; 20 mM Na-phosphate pH 7.0; single-site model; apparent Ka; mean of one to three experiments; conditions: both partners purified
T1 construct: also called WT; HxuAWT; source: E. coli BL21 with a pBAD24 derivative harbouring the hxuCBA operon; purified from the culture supernatant (ammonium sulfate, SEC, monoQ)
T1 sequence: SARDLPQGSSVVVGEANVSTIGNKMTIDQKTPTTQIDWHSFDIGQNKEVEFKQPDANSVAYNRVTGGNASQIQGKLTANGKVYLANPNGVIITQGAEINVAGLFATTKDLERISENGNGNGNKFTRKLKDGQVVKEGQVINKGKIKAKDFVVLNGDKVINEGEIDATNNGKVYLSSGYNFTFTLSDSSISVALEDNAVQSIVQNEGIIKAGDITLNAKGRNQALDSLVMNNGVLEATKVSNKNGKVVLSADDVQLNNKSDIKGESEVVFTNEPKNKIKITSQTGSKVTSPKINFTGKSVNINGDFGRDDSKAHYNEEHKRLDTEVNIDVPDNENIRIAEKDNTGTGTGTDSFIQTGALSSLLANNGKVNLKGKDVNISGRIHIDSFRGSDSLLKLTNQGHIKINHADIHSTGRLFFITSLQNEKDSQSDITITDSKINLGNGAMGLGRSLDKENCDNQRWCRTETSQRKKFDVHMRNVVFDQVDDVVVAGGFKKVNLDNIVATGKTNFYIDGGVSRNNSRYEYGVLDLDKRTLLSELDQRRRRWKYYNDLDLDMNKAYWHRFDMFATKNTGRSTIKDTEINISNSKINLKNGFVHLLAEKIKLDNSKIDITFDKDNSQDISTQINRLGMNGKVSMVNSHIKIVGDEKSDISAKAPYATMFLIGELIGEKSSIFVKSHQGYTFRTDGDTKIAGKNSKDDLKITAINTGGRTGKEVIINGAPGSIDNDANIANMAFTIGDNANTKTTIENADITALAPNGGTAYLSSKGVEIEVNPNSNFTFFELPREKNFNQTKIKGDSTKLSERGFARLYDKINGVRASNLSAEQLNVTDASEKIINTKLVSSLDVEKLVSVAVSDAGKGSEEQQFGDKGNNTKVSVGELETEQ

[3] = target: T2, HxuA, cysteine-less variant (cysteines 855 and 861 replaced by serines; referred to as HxuA throughout) (Haemophilus influenzae, UniProt P44602 22-905, cysteine at position 855 replaced by serine | cysteine at position 861 replaced …); experiment: ITC; haemopexin or its fragments (~100 μM) in the syringe, HxuA (~10 μM) in the cell; 20 mM Na-phosphate pH 7.0, 25 °C; single-site model; apparent Ka; conditions: both partners purified
T2 construct: HxuA, haem-haemopexin utilisation protein A (TpsA cargo protein) of Haemophilus influenzae, called full-length, 884 residues, Ser1 to Gln884; Measured mass 96,467.6094 (theoretical 96,469.6926); also called HxuAdm; dm variant; source: E. coli BL21, pBAD24 derivative with the hxuCBA operon; purified from the culture supernatant (ammonium sulfate, SEC, monoQ)
T2 sequence: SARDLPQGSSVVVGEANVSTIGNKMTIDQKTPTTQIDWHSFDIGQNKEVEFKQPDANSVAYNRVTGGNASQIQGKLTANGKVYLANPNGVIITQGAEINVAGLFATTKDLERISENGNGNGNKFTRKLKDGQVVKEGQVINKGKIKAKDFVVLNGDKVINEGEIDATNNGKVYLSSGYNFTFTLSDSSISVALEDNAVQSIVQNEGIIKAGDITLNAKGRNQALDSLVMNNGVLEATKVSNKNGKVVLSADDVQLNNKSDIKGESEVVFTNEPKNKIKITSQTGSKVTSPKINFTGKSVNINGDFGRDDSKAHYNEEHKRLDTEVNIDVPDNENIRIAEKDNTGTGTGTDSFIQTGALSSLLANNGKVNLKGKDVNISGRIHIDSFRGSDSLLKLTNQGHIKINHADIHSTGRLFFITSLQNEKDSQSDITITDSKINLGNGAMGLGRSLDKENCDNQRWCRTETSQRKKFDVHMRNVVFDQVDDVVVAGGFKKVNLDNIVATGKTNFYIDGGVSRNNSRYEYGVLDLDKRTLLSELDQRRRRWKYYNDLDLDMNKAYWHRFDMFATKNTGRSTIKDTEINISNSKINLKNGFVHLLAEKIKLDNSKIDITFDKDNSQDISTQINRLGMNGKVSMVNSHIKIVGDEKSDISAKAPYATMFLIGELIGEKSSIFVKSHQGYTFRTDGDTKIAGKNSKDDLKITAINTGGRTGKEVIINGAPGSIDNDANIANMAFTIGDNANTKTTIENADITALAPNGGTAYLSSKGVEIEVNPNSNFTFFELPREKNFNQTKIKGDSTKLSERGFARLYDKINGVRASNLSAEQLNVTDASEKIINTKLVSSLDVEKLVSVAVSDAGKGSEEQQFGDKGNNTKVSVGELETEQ

In the case of “rabbit haem-haemopexin (from UniProt P20058 26-460) (natural protein)”, the Ka [1] is reported as 1.7e+08 M⁻¹, the dH [1] is reported as -13 kcal/mol and the stoichiometry N [1] is reported as 1.

B1: N-terminal domain of rabbit haemopexin (domain or fragment)
chain: VPLTSAHGNVTEGESGTKPEADVIEQCSDGWSFDATTLDDNGTMLFFKDEFVWKSHRGIRELISERWKNFIGPVDAAFRHGHTSVYLIKGDKVWVYTSEKNEKVYPKSLQDEFPGIPFPLDAAVECHRGECQDEGILFFQGNRKWFWDLTTGTKKERSWPAVGNCTSALRWLGRYYCFQGNQFLRFNPVSGEVPPGYPLDVRDYFLSCPGRGHR
notes: haemopexin, rabbit, N-terminal fragment; The results call the domain residues 1-208; the fragment itself ends at Arg214; also called NtHpx; NterHpx; source: trypsin digestion of haemopexin purified from rabbit serum; purified (mono S, SEC)
For B1, the Ka [2] was 7.6e+07 M⁻¹ and the “stoichiometry N” value [2] was 0.88.

B2: N-terminal domain of rabbit haemopexin (domain or fragment)
chain: VPLTSAHGNVTEGESGTKPEADVIEQCSDGWSFDATTLDDNGTMLFFKDEFVWKSHRGIRELISERWKNFIGPVDAAFRHGHTSVYLIKGDKVWVYTSEKNEKVYPKSLQDEFPGIPFPLDAAVECHRGECQDEGILFFQGNRKWFWDLTTGTKKERSWPAVGNCTSALRWLGRYYCFQGNQFLRFNPVSGEVPPGYPLDVRDYFLSCPGRGHR
notes: haemopexin, rabbit, N-terminal tryptic fragment: cleaved in the linker after Arg 214; also called NtHpx; NterHpx; source: trypsin digestion of haemopexin purified from rabbit serum; purified (mono S, SEC)
For B2, the dH [3] was -48.5 kcal/mol and the “stoichiometry N” value [3] was about 1.

Reference: paper PMC4873976, “Structural basis for haem piracy from host haemopexin by Haemophilus influenzae” (Nature Communications, 2016)
